± gives the standard deviation of the averaged measurements.
Test system: Saccharomyces cerevisiae
Experiment: protein stability index of tFT-peptide fusion (C-terminal peptide) (PSI (0-1 scale)); higher = more stable (slower turnover)
Settings: temperature: 30 C
Method: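 MPS profiling in S. cerevisiae of the yeast C-terminome library: the last 12 aa of each annotated ORF are fused to the C-terminus of a sfGFP-mCherry timer, after a GGGS linker. Cells are FACS-sorted into 8 mCherry/sfGFP bins and deep-sequenced. PSI runs from 0 (unstable) to 1 (stable); wild type and das1Δ backgrounds, two technical replicates each.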

[1] = genetic background: das1 deletion

| Sequence | protein stability index [1] | protein stability index (genetic background: wild type) |
| --- | --- | --- |
| IALAEHRVERSN [CLB3 C-terminal 12 aa] | 0.718 ± 0.05 | 0.701 ± 0.033 |
| IAPIRIYKITKQ [EFM3 C-terminal 12 aa] | 0.686 ± 0.028 | 0.677 ± 0.039 |
| IAREIFHNVTNF [SEC39 C-terminal 12 aa] | 0.724 ± 0.025 | 0.695 ± 0.037 |
| IARLEKLLSGGV [LEA1 C-terminal 12 aa] | 0.692 ± 0.017 | 0.686 ± 0.0076 |
| IAVNYGQKDLIE [BRR1 C-terminal 12 aa] | 0.697 ± 0.033 | 0.669 ± 0.014 |
| IDLFRDAYNHEN [UPS2 C-terminal 12 aa] | 0.7353 ± 0.0064 | 0.70705 ± 3.4e-05 |
| IDMLKMSNAEEY [YLR012C C-terminal 12 aa] | 0.672 ± 0.015 | 0.6642 ± 0.0041 |
| IEIVKDAKRKGY [MRP21 C-terminal 12 aa] | 0.70154 ± 7.3e-05 | 0.674 ± 0.017 |
| IEKNHAKFTDLT [CSH1 C-terminal 12 aa] | 0.7074 ± 0.0034 | 0.731 ± 0.017 |
| IFFILYTLFKLF [SFT1 C-terminal 12 aa] | 0.422 ± 0.0091 | 0.199 ± 0.01 |
| IFLNDVYFNLMV [YPR126C C-terminal 12 aa] | 0.728 ± 0.016 | 0.686 ± 0.012 |
| IFNATASNPFGF [SLA1 C-terminal 12 aa] | 0.738 ± 0.029 | 0.747 ± 0.045 |
| IFVFFVIWVLVN [SED5 C-terminal 12 aa] | 0.209 ± 0.019 | 0.211 ± 0.015 |
| IGEFADNVMPLA [PRY2 C-terminal 12 aa] | 0.709 ± 0.026 | 0.712 ± 0.0076 |
| IGISPSQNKWEK [REX3 C-terminal 12 aa] | 0.728 ± 0.02 | 0.7285 ± 0.0071 |
| IIRDFLIEKGFI [YNL320W C-terminal 12 aa] | 0.731 ± 0.024 | 0.667 ± 0.009 |
| IKALQDSLFKDV [NUP188 C-terminal 12 aa] | 0.718 ± 0.013 | 0.705 ± 0.042 |
| IKKGTPNNIAFL [YJL197C-A C-terminal 12 aa] | 0.7027 ± 0.0063 | 0.704 ± 0.017 |
| IKKRKVQNRAMS [YOL038C-A C-terminal 12 aa] | 0.701 ± 0.017 | 0.73 ± 0.0083 |
| IKTDSVHELLKK [MFM1 C-terminal 12 aa] | 0.704 ± 0.018 | 0.696 ± 0.0083 |
| ILGNYRDIFKQA [RGA2 C-terminal 12 aa] | 0.726 ± 0.014 | 0.266 ± 0.077 |

| Sequence | protein stability index [1] | protein stability index (genetic background: wild type) |
| --- | --- | --- |
| ILISTIYAHCSS [HFD1 C-terminal 12 aa] | 0.577 ± 0.0076 | 0.489 ± 0.015 |
| ILLTPNNHGEMK [BDH1 C-terminal 12 aa] | 0.689 ± 0.03 | 0.684 ± 0.011 |
| ILPIHQEDPANR [MEP1 C-terminal 12 aa] | 0.701 ± 0.011 | 0.686 ± 0.042 |
| ILTAEKMRGNGN [RRP4 C-terminal 12 aa] | 0.686 ± 0.033 | 0.677 ± 0.027 |
| INFHSGSIFDAC [ENV11 C-terminal 12 aa] | 0.717 ± 0.029 | 0.7009 ± 0.0015 |
| INKDMTKKKMKF [MFG1 C-terminal 12 aa] | 0.689 ± 0.029 | 0.677 ± 0.029 |
| IPKIPKIVNGFK [DCS1 C-terminal 12 aa] | 0.694 ± 0.012 | 0.6501 ± 0.0018 |
| IQAKLKISVHDI [BEM1 C-terminal 12 aa] | 0.674 ± 0.0062 | 0.681 ± 0.0069 |
| IQKLNKVLEDSI [ATP5 C-terminal 12 aa] | 0.6748 ± 0.0023 | 0.675 ± 0.02 |
| IRAAGGVVELIA [RPL28 C-terminal 12 aa] | 0.658 ± 0.0023 | 0.652 ± 0.038 |
| IREFLEEIVDTQ [SUS1 C-terminal 12 aa] | 0.725 ± 0.081 | 0.728 ± 0.091 |
| ISISHSAVPNIV [YAL069W C-terminal 12 aa] | 0.678 ± 0.0075 | 0.729 ± 0.037 |
| ISLVFLWVSIEV [CSM4 C-terminal 12 aa] | 0.157 ± 0.018 | 0.173 ± 0.011 |
| ISVYCGTTLEVM [TFC8 C-terminal 12 aa] | 0.44 ± 0.016 | 0.469 ± 0.013 |
| ITEVNVSLEEKL [FHL1 C-terminal 12 aa] | 0.6842 ± 0.0013 | 0.7078 ± 0.0013 |
| ITQARANTWLVV [YOR024W C-terminal 12 aa] | 0.654 ± 0.02 | 0.648 ± 0.0088 |
| ITRDESTATYKY [RTT101 C-terminal 12 aa] | 0.695 ± 0.0095 | 0.6686 ± 0.0022 |
| ITRTRLDSFVKT [YBR072C-A C-terminal 12 aa] | 0.696 ± 0.038 | 0.6292 ± 0.0014 |
| ITTKRSLCSSKD [PEX25 C-terminal 12 aa] | 0.673 ± 0.015 | 0.695 ± 0.02 |
| IVTEWVKKPCLC [MUP3 C-terminal 12 aa] | 0.546 ± 0.013 | 0.489 ± 0.01 |

— the supplement of paper PMC10724198
